This note sets out measurements from PMC9939298.

Substrate in data set [1]: O=c1ccn([C@@H]2O[C@H](CO[P@@](=O)(O)O[P@@](=O)(O)O[C@H]3O[C@H](CO)[C@@H](O)[C@H](O)[C@H]3O)[C@@H](O)[C@H]2O)c(=O)[nH]1
Briefly: purified protein. The settings on record: details in supplement Table S2.

Substrate in data set [2]: O=c1ccn([C@@H]2O[C@H](COP(=O)(O)OP(=O)(O)O[C@H]3OC[C@@H](O)[C@H](O)[C@H]3O)[C@@H](O)[C@H]2O)c(=O)[nH]1
Description: purified protein. The following applies: acceptor astragaloside III (5); details in supplement Table S2.

B1: AmUGT13 (Astragalus mongholicus) (protein)
chain: MEREAENRPLKLYFLPFLAAGHMIPLCDIAMLFASRGQDVTVITTPSNAETLLKRKSNNHLHIHTVDIPSDSPQIENITSATNIDSAISVYTAAMLLRQPVEQFLRENPPDCIVADFMYQWVSEIANTLQIPRLAFNGFPLFAVCAMNSFSAHPELFSGSVSEPFNLPDLPHPITMHARSPEGIFRFYEALLKMEVESHGLIVNSFVEIESEYVEHYERTTGHKAWHLGPASLVHASNQQKSERGHISVVSENDCVSWLNSKQPNSVVYISFGSTCRFSDNQLYEIAAGVEASGHPFIWVVLEKLEEKGSKGWLPEGFEERMKEKGMIIRGWAPQVLILDHPAIGGFLTHCGWNSVVEGVSAGVPMMTWPVQADQFYNEKLITEVQGNGVEVGAVEWGVSGYGERKIVISREKIEKAVRRVMDGGDEAEEIRRRARQLAVKAKEAVREGGSSHRNLRELIRDLKLLRDSRSAN
In general, Km refers to the concentration of substrate that gives half-maximal velocity. Take B1: the Km is 414.7 µM in “purified protein [1]” (acceptor astragaloside III (5)) and 479.6 µM in “purified protein [2]”.

B2: AmUGT7 (Astragalus mongholicus) (protein)
chain: MESQQSHEQLNVTFLPYPTPGHMIPMIDTARLFAKHGATVTIITTHANASTFQKHIDSDISLGYPIKTQLIQFPAAQVGLPDGVENVKDGSSLELLGKISQGIFLLQGQIELLFQHLQPDCIVTDMMYPWTVESAAKLGIPRLHYYSTSYFSNCASYFVRKYRPHDSLDSDDQKFTVPCLPISIEMTPLQLPEWIRTKNPSTGGFFEAMYESEKNSYGTLYNSFHELESDYEQLNKTTMGIKSWSVGPVSAWANKDDEKKANRGHMGESGKELEWLNWLNSKQNDSVLYVSFGSLTRLPNAQLLEIAHGLEISGHNFIWVIRKNDRDEDGDNFLQEFEQRMKESKKGYIIWNWAPQLLILDQPAVGGIVTHCGWNSILESINAGLPMIAWPMFAEQFYNERLLVDVLKIGVPVGVKENKYWFNIGEETLVRREEIMKAVVLLMGSSQESKEMRLKAKKLADASKRTIEEGGHSYNNLLQLIDELKSLKISRELDKSRLDN
Turning to B2, the Km in the data set “purified protein [1]” (acceptor cycloastragenol-3-O-β-D-xyloside (2)) came out at 74.8 µM.
